Results reported in patent publication US20220175814A1.

What was measured:
[1] = target: PD-L1 on RENCA HER2 cells (mouse) (UniProt Q9EP73); test: flow cytometry, untreated RENCA HER2 cells stained with PE anti-mouse PD-L1 10F.9G2, 1 h
[2] = target: PD-L1 on RENCA HER2 cells (mouse) (UniProt Q9EP73); test: flow cytometry, RENCA HER2 cells treated 24 h with 1 microgram/ml polyIC/PPHA, stained with PE anti-mouse PD-L1 10F.9G2, 1 h
PD-L1 on A431 cells [3] = target: PD-L1 on A431 cells (UniProt Q9NZQ7); test: flow cytometry, untreated control A431 cells, stained 40 min on ice
Chain of UniProt Q9NZQ7 (Q9NZQ7 19-290 limits assumed): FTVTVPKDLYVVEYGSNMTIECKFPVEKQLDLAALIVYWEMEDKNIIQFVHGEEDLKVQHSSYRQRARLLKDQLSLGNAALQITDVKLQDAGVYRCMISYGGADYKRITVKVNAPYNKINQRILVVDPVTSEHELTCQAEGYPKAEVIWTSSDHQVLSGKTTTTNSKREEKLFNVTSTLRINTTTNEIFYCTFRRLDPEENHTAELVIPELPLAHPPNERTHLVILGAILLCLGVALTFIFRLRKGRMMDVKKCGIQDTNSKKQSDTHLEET

PD-L1 on A431 cells [4] = target: PD-L1 on A431 cells (UniProt Q9NZQ7); test: flow cytometry, A431 cells treated 5 h with 0.125 µg/ml PEI-PEG-EGF/polyIC, stained 40 min on ice
PD-L1 on A431 cells [5] = target: PD-L1 on A431 cells (UniProt Q9NZQ7); test: flow cytometry on A431 cells, negative control
[6] = target: PD-L1 on RENCA HER2 cells (mouse) (UniProt Q9EP73); test: flow cytometry on RENCA HER2 cells, isotype control, 1 h

Chain of UniProt Q9EP73 (Q9EP73 19-290): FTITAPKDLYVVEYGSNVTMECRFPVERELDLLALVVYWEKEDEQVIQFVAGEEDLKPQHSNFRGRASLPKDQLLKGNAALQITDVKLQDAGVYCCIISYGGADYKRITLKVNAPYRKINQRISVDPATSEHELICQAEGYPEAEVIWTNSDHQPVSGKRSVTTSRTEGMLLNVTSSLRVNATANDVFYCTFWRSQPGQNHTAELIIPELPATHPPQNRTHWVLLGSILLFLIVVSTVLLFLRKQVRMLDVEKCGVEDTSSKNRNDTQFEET

In the case of “phycoerythrin (PE)-conjugated anti-mouse PD-L1 antibody CD274 (PD-L1, B7-H1) [10F.9G2] Tonbo cat #50-1243-U025”, the median PE-A (Calculated raw values of medians using x-axis channel(s): PE-A) [1] is reported as 163 and the median PE-A (Calculated raw values of medians using x-axis channel(s): PE-A) [2] is reported as 322.

In the case of “PD-L1-PE labelled antibody (Biolegend, cat #393607)”, the MFI (PD-L1 on A431 cells [3]) is reported as 431 and the MFI (PD-L1 on A431 cells [4]) is reported as 751.

Substance “Isotype control (Example 1, A431 staining) (antibody)” has an MFI (PD-L1 on A431 cells [5]) of 13.

“Isotype control (Example 6, RENCA HER2 staining) (antibody)” showed a median PE-A (Calculated raw values of medians using x-axis channel(s): PE-A) [6] of 3.19.
